Source: PMC11094138, “The NTE domain of PTENα/β promotes cancer progression by interacting with WDR5 via its SSSRRSS motif” (Cell Death & Disease, 2024)

What was measured:
WDR5^22–334 [1] = target: T1, WDR5^22–334 (human, UniProt P61964 22-334); assay: ITC; competitive: PTENα-NTE^116–148 or PTENα-NTE^1–173 titrated into a 1:1 molar mixture of WDR5^22–334 and H3 1–15; 25 °C; 20 mM Tris-HCl pH 7.5, 150 mM NaCl; conditions: both partners purified
WDR5^22–334 [2] = target: T1, WDR5^22–334; assay: ITC; WDR5 (50 µM) in the cell, peptide or protein (750 µM) in the syringe, 20 injections; 25 °C; 20 mM Tris-HCl pH 7.5, 150 mM NaCl; single-site model; iTC-200; conditions: both partners purified

Kd against a 1:1 mixture of WDR5^22–334 and H3 1–15 (WDR5^22–334 [1]) | Kd (WDR5^22–334 [2]) | binding result (WDR5^22–334 [2]) | Binder
32 ± 3 µM | 3.8 µM | – | SSRRSSHYPAAVQSQAAAERGASATAKSRAISI (PTENα (PTEN-L), the N-terminally extended variant of human PTEN (576 residues); residues 116–148 of its N-terminal extension; also called synthetic PTENα-NTE^116–148 peptide; source: synthetic peptide) [PTENα-NTE^116–148 peptide]
– | – | binds | GSARAEVHLRK (source: lyophilized peptide (Shanghai Apeptide or GL Biochem)) [MLL1 WIN motif MLL1^3762–3772]
– | – | binds | GSRRAEVHLRK (source: lyophilized peptide (Shanghai Apeptide or GL Biochem)) [MLL1^3762–3772_A3764R]
